Laboratory results reported in PMC3156282 (Bioorganic & medicinal chemistry letters, 2011).
Numbered stars: 1 amine (or outer) side, 2 acyl side, 3 side chain; on linkers, the order of the positions; unused ones are H or OH. Square brackets hold non-standard residues; d marks the D form. Side chains are listed from the residue outwards. 4‑DMNA = 4-N,N-dimethylamino-1,8-naphthalimido-alanine, CN(C)c1ccc2c3c(cccc13)C(=O)N(C[C@H](N[*:1])C(=O)[*:2])C2=O; 4‑DMN = 4-DMN: an environment-sensitive fluorophore; 9‑Å linker = not defined here

B1: 4-DMN sensor 5 (GB1-WASP(230–277)-His6 with the 4-DMNA amino acid at position 271, made by expressed protein ligation) (domain or fragment)
chain: GB1-KKKISKADIGAPSGFKHVSHVGWDPQNGFDVNNLDPDLRCL[4‑DMNA]SRAGIS-His6
B2: 4-DMN sensor 3 (GB1-WASP(230–277)-His6, Phe271Cys, Cys271 labeled with 4-DMN through a 9-Å linker) (domain or fragment, UniProt P42768 230-277, looked up)
chain: GB1-KKKISKADIGAPSGFKHVSHVGWDPQNGFDVNNLDPDLRSLC([9‑Å linker-4‑DMN])SRAGIS-His6
modifications: not fully specified; reading uncertain

Molecular target: Cdc42 (UniProt P60953 1-191)
Sequence (P60953 whole entry): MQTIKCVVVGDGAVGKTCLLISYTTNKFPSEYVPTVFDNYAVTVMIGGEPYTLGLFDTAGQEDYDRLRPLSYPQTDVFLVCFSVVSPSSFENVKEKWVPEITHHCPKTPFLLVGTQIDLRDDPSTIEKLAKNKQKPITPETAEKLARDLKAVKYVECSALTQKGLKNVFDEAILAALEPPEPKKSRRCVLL
Test: other fluorescence titration

Binder | Kd [nM]
B1 | 385 ± 9
B2 | 341 ± 22
